Reference: paper PMC5353646, “Allosteric modulation of peroxisomal membrane protein recognition by farnesylation of the peroxisomal import receptor PEX19” (Nature Communications, 2017)
“Also recorded” adds a separate entry of the source.

B1: M255R: PEX19 CTD variant M255R (helix α4) (protein)
chain: GMDEGDGEGNILPIMQSIMQNLLSKDVLYPSLKEITEKYPEWLQSHRESLPPEQFEKYQEQHSVMCKICEQFEAETPTDSETTQKARFEMVLDLRQQLQDLGHPPKELAGEMPPGLNFDLDALNLSGPPGASGEQCLIM
modifications: left off: His6, end not stated, cleaved
B2: PEX19 C296S: full-length PEX19 variant which lacks the farnesylation site (protein, UniProt P40855 1-299, looked up, variant C296S)
chain: MAAAEEGCSVGAEADRELEELLESALDDFDKAKPSPAPPSTTTAPDASGPQKRSPGDTAKDALFASQEKFFQELFDSELASQATAEFEKAMKELAEEEPHLVEQFQKLSEAAGRVGSDMTSQQEFTSCLKETLSGLAKNATDLQNSSMSEEELTKAMEGLGMDEGDGEGNILPIMQSIMQNLLSKDVLYPSLKEITEKYPEWLQSHRESLPPEQFEKYQEQHSVMCKICEQFEAETPTDSETTQKARFEMVLDLMQQLQDLGHPPKELAGEMPPGLNFDLDALNLSGPPGASGEQSLIM
modifications: full-length

Assays:
[1] = tested on: PEX19-deficient human fibroblasts (ΔPEX19 T); experiment: Functional complementation of PEX19-deficient fibroblasts (peroxisomal protein import); assay type: cell-based; conditions: full-length PEX19 variants, 72 h after transfection; for cells showing restored peroxisomal protein transport (functional complementation): at least 100 cells in three independent transfections, series of Fig. 3c
Description: A bicistronic expression plasmid coding for eGFP-PTS1 and non-tagged PEX14 (pMF1220)[43] was kindly provided by Marc Fransen (Leuven, Belgium). pIRES2-HsPEX19-eGFP-PTS1 was constructed by replacing the open reading frame of PEX14 (BglII/SalI) with a DNA-cassette encoding the full-length open reading frame of human PEX19 as derived from BamHI/SalI digestion of pAH05 (ref. [44]). Single point mutations were introduced into the PEX19 sequence by Quickchange XL Site-directed Mutagenesis kit (Stratagene) using primer pairs (Supplementary Table 1). The bicistronic expression vectors coding for PEX19 variants and eGFP-PTS1 were transfected into the human cell-line ΔPEX19 T which was derived from PEX19-deficient Zellweger patient fibroblasts. ΔPEX19 T cells, characterized by a defect in peroxisome biogenesis were routinely authenticated by functional complementation assays as described below and checked for mycoplasma contamination using Venor GeM Advance Mycoplasm Detection Kit (Minerva Biolabs). The efficiency of transfection according to the Amaxa Cell Line Nucleofector Kit R protocol (Lonza Cologne AG) was always around 90%. After 72 h of transfection, cells were subjected to fluorescence and immunofluorescence microscopy using polyclonal antiserum against human PEX14 (ref. [45]) (1:400 diluted) or monoclonal antibodies against human PEX19 (BD Biosciences, MA5-17266 Thermo Scientific; 1:400 diluted). Statistical analysis was carried out from three independent transfections of each pIRES-PEX19-eGFP-PTS1 expression plasmid. Based on the appearance of eGFP-PTS1 fluorescence pattern, about 100 cells of each experiment were visually categorized into three classes, (i) full complementation of peroxisomal import as visualized by punctuate staining pattern, (ii) partial complementation as indicated by diffuse cytosolic staining with few dots, (iii) no complementation resulting in only cytosolic staining. All micrographs were recorded on a Zeiss Axioplan 2 microscope with a Zeiss Plan-Apochromat × 63/1.4 oil objective and an Axiocam MR digital camera, and were processed with AxioVision 4.6 software (Zeiss, Jena, Germany). The steady-state level of PEX19 expression was assessed by immunoblot analysis, using monoclonal mouse antibodies against HsPEX19 (BD Biosciences, MA5-17266; 1:1,000 diluted) (Supplementary Fig. 9).

[2] = Hydrophobic interaction chromatography; assay type: physicochemical
Protocol: Purified PEX19 CTD and variants were adjusted to a buffer containing 650 mM (NH4)2SO4 and 500 μg protein was subjected to equilibrated Butyl Sepharose FF column (20 mM potassium phosphate, pH 6.5, 50 mM NaCl and 650 mM (NH4)2SO4). After washing, bound protein was eluted with linear decreasing (NH4)2SO4 concentrations (650–0 mM (NH4)2SO4, 20 ml). Eluted proteins were detected using 280 nm absorption. The binding strength is indicated by the elution volume and correlates with protein hydrophobicity.

[3] = Stability of purified protein in solution; assay type: physicochemical
[4] = tested on: PEX19-deficient human fibroblasts; experiment: Immunoblot analysis of PEX19 variants in transfected fibroblasts; assay type: cell-based
Description: A bicistronic expression plasmid coding for eGFP-PTS1 and non-tagged PEX14 (pMF1220)[43] was kindly provided by Marc Fransen (Leuven, Belgium). pIRES2-HsPEX19-eGFP-PTS1 was constructed by replacing the open reading frame of PEX14 (BglII/SalI) with a DNA-cassette encoding the full-length open reading frame of human PEX19 as derived from BamHI/SalI digestion of pAH05 (ref. [44]). Single point mutations were introduced into the PEX19 sequence by Quickchange XL Site-directed Mutagenesis kit (Stratagene) using primer pairs (Supplementary Table 1). […] After 72 h of transfection, cells were subjected to fluorescence and immunofluorescence microscopy using polyclonal antiserum against human PEX14 (ref. [45]) (1:400 diluted) or monoclonal antibodies against human PEX19 (BD Biosciences, MA5-17266 Thermo Scientific; 1:400 diluted). […] Based on the appearance of eGFP-PTS1 fluorescence pattern, about 100 cells of each experiment were visually categorized into three classes, (i) full complementation of peroxisomal import as visualized by punctuate staining pattern, (ii) partial complementation as indicated by diffuse cytosolic staining with few dots, (iii) no complementation resulting in only cytosolic staining. […]

Row | Molecule | functional complementation (in words) [1] | elution volume after start of the gradient ([2]; Butyl Sepharose FF, linear decreasing (NH4)2SO4 650–0 mM, 20 ml, 20 mM potassium phosphate, pH 6.5, 50 mM NaCl, 280 nm, 500 μg protein) [mL] | hydrophobic interaction chromatography, effect on hydrophobicity (in words) ([2]; farnesylated vs non-farnesylated, compared to wild type) | stability in solution after purification [3] | cells showing restored peroxisomal protein transport (functional complementation) [1] [%] | cells showing restored peroxisomal protein transport (functional complementation) ([1]; listed as C296S) [%] | expression and farnesylation in vivo [4]
1 | B1 | not capable of rescuing the ΔPEX19 phenotype; also recorded: completely abolishes PEX19 function | 5.00 | most pronounced effects | not stable for long time in solution |  |  | 
2 | B2 | cannot fully restore PEX19 function |  |  |  | 46 | 50 | lacks the farnesylation site
